Experiments:
Mm GS = biological target: T1, Mm GS (Methanosarcina mazei, UniProt Q8PY99); assay: cryo-EM structure, […] A; format: binding; conditions: formed in situ from ATP; with Met-Sox-P; 5 mM MgCl2, pH 7.5; active site
T1 construct: gene glnA1; labile dodecamer (two hexamer rings), active site between two subunits; catalytic residues Asp57, Glu307

[1] = biological target: the molecule itself; assay: crystal structure; Mm GS-GlnK1 complex formed by mixing ~2:1 (excess GlnK1) and SEC; 30% PEG 400, 0.1 M sodium cacodylate pH 6.5, 0.1 M LiSO4
[2] = biological target: T2, Methanosarcina mazei glutamine synthetase (Methanosarcina mazei), Q8PY99; assay: fluorescence polarisation; apparent; GS titrated to saturation into 1 nM Fluorescein-12-ATP, then GlnK1 titrated in; 25 mM Tris pH 7.5, 100 mM NaCl, 1 mM MgCl2; conditions: remark: other sources report otherwise
T2 chain: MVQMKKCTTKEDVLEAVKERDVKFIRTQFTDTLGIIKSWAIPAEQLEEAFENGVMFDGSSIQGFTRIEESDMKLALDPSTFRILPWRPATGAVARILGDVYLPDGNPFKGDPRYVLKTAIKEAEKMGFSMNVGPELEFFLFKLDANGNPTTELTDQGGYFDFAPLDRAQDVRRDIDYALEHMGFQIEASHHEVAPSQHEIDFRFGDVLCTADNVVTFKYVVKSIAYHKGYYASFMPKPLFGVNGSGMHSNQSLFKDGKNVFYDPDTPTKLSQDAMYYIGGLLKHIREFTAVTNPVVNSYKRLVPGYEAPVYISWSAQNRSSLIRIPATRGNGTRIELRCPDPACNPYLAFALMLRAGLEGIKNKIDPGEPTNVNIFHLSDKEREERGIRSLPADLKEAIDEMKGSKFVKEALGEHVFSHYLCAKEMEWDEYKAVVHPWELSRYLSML

[3] = biological target: the molecule itself; assay: mass photometry; protein at 75 nM final, 20 mM Tris pH 7.5, 150 mM NaCl, room temperature; Refeyn OneMP; four measurements
[4] = biological target: the molecule itself; assay: cryo-EM structure; apo Mm GS at ~20 uM (1.0 mg/mL), 12.5 mM Tris pH 7.5, 5 mM MgCl2, 150 mM NaCl, 2.5% glycerol, 1 mM bME; dodecamer and partial oligomer from one dataset
[5] = biological target: the molecule itself; assay: crystal structure; Mm GS(R167L-A168G), 35% PEG 200, 0.1 M sodium citrate pH 5.5; three subunits in the asymmetric unit, symmetry generates the dodecamer

Molecule: Nc1ncnc2c1ncn2[C@@H]1O[C@H](COP(=O)(O)OP(=O)(O)O)[C@@H](O)[C@H]1O [ADP]
- cryo-EM structure, 2.7 A (Mm GS): In the Mm GS TS structure, the ADP is anchored into the active site pocket

B1: Methanosarcina mazei GlnK1 (natural protein)
chain: MVAMKYVIAMIRPERLDAVKRELQKIEVSRLTVSSVSGYGAQKGYMEIYRAMEYDANLLEKIKIEIAVNDEFLEPTIEAIKTGAKGSDGYVGSGKIFVLPLENVIRIRTNETGPEAI
notes: GlnK1, PII family nitrogen regulatory protein of Methanosarcina mazei; gene bought from Genscript, in pET15b; Trimer in the crystal structure of the complex with GS; also called Mm GlnK1; WT GlnK1; source: E. coli C41(DE3), purified (cobalt NTA TALON)
- stoichiometry N [1]: 3
- Kd [2]: 6.4 µM

B2: Methanosarcina mazei glutamine synthetase (enzyme)
chain: MVQMKKCTTKEDVLEAVKERDVKFIRTQFTDTLGIIKSWAIPAEQLEEAFENGVMFDGSSIQGFTRIEESDMKLALDPSTFRILPWRPATGAVARILGDVYLPDGNPFKGDPRYVLKTAIKEAEKMGFSMNVGPELEFFLFKLDANGNPTTELTDQGGYFDFAPLDRAQDVRRDIDYALEHMGFQIEASHHEVAPSQHEIDFRFGDVLCTADNVVTFKYVVKSIAYHKGYYASFMPKPLFGVNGSGMHSNQSLFKDGKNVFYDPDTPTKLSQDAMYYIGGLLKHIREFTAVTNPVVNSYKRLVPGYEAPVYISWSAQNRSSLIRIPATRGNGTRIELRCPDPACNPYLAFALMLRAGLEGIKNKIDPGEPTNVNIFHLSDKEREERGIRSLPADLKEAIDEMKGSKFVKEALGEHVFSHYLCAKEMEWDEYKAVVHPWELSRYLSML
notes: glutamine synthetase (GS) of Methanosarcina mazei; gene bought from Genscript, in pET15b; Oligomeric state depends on concentration: dimers at 75 nM, dodecamers and partial oligomers at about 20 uM (1 mg/mL); also called Mm GS; WT Mm GS; source: E. coli C41(DE3), purified (cobalt NTA TALON)
- stoichiometry N [3]: 2
- stoichiometry N [4]: 12

B3: Mm GS(R167L-A168G) (enzyme, Methanosarcina mazei)
chain: MVQMKKCTTKEDVLEAVKERDVKFIRTQFTDTLGIIKSWAIPAEQLEEAFENGVMFDGSSIQGFTRIEESDMKLALDPSTFRILPWRPATGAVARILGDVYLPDGNPFKGDPRYVLKTAIKEAEKMGFSMNVGPELEFFLFKLDANGNPTTELTDQGGYFDFAPLDLGQDVRRDIDYALEHMGFQIEASHHEVAPSQHEIDFRFGDVLCTADNVVTFKYVVKSIAYHKGYYASFMPKPLFGVNGSGMHSNQSLFKDGKNVFYDPDTPTKLSQDAMYYIGGLLKHIREFTAVTNPVVNSYKRLVPGYEAPVYISWSAQNRSSLIRIPATRGNGTRIELRCPDPACNPYLAFALMLRAGLEGIKNKIDPGEPTNVNIFHLSDKEREERGIRSLPADLKEAIDEMKGSKFVKEALGEHVFSHYLCAKEMEWDEYKAVVHPWELSRYLSML
notes: glutamine synthetase (GS) of Methanosarcina mazei with R167L and A168G; gene bought from Genscript, in pET15b; everywhere else R167L; also called mutant Mm GS; source: E. coli C41(DE3), purified (cobalt NTA TALON)
- stoichiometry N [5]: 12

B4: Bacillus subtilis glutamine synthetase (enzyme)
chain: AKYTREDIEKLVKEENVKYIRLQFTDILGTIKNVEIPVSQLGKALDNKVMFDGSSIEGFVRIEESDMYLYPDLNTFVIFPWTAEKGKVARFICDIYNPDGTPFEGDPRNNLKRILKEMEDLGFSDFNLGPEPEFFLFKLDEKGEPTLELNDKGGYFDLAPTDLGENCRRDIVLELEEMGFEIEASHHEVAPGQHEIDFKYAGAVRSCDDIQTFKLVVKTIARKHGLHATFMPKPLFGVNGSGMHCNLSLFKNGVNAFFDENADLQLSETAKHFIAGIVKHATSFTAVTNPTVNSYKRLVPGYEAPCYVAWSAQNRSPLIRIPASRGISTRVEVRSVDPAANPYLALSVLLAAGLDGIKNKLEAPAPIDRNIYVMSKEERMENGIVDLPATLAEALEEFKSNEVMVKALGEHLFEHFIEAKEIEWDMFRTQVHPWEREQYMSQY
notes: glutamine synthetase (GS) of Bacillus subtilis; also called Bs GS; apo Bs GS
- stoichiometry N [3]: 12
